Source: patent publication US20230002480A1

Assays:
Experiment in all cases: cell-based or functional assay
[1] = target: HIV-1 Env of pseudovirus 6535.3 (HIV-1)
[2] = target: HIV-1 Env of pseudovirus CAAN5342.A2 (HIV-1)
[3] = target: HIV-1 Env of pseudovirus CNE58 (HIV-1)
[4] = target: HIV-1 Env of pseudovirus ZM109F.PB4 (HIV-1)
[5] = target: HIV-1 Env of pseudovirus CNE30 (HIV-1)
[6] = target: HIV-1 Env of pseudovirus SC422661.8 (HIV-1)
[7] = target: HIV-1 Env of pseudovirus 1394C9G1(Rev-) (HIV-1)
[8] = target: HIV-1 Env of pseudovirus CAP210.2.00.E8 (HIV-1)
[9] = target: HIV-1 Env of pseudovirus HIV-001428-2.42 (HIV-1)
[10] = target: HIV-1 Env of pseudovirus RHPA4259.7 (HIV-1)
[11] = target: HIV-1 Env of pseudovirus WITO4160.33 (HIV-1)
[12] = target: HIV-1 Env of pseudovirus 6244_13_B5_4576 (HIV-1)
[13] = target: HIV-1 Env of pseudovirus 0260.v5.c36 (HIV-1)
[14] = target: HIV-1 Env of pseudovirus 246F C1G (HIV-1)
[15] = target: HIV-1 Env of pseudovirus 191955_A11 (HIV-1)
[16] = target: HIV-1 Env of pseudovirus BF1266.431a (HIV-1)
[17] = target: HIV-1 Env of pseudovirus HIV-16055-2.3 (HIV-1)
[18] = target: HIV-1 Env of pseudovirus CAP45.2.00.G3 (HIV-1)
[19] = target: HIV-1 Env of pseudovirus THRO4156.18 (HIV-1)
[20] = target: HIV-1 Env of pseudovirus 6240_08_TA5_4622 (HIV-1)
[21] = target: HIV-1 Env of pseudovirus Q769.d22 (HIV-1)
[22] = target: HIV-1 Env of pseudovirus Ce0393_C3 (HIV-1)
[23] = target: HIV-1 Env of pseudovirus Ce1172_H1 (HIV-1)
[24] = target: HIV-1 Env of pseudovirus 9004SS_A3_4 (HIV-1)

PG9 (antibody)
IC50, titer in TZM.bl cells [1]: 0.176 µg/mL | IC80, titer in TZM.bl cells [1]: 0.627 µg/mL | IC50, titer in TZM.bl cells [2]: 4.6 µg/mL | IC80, titer in TZM.bl cells [2]: 27 µg/mL | IC50, titer in TZM.bl cells [3]: 0.038 µg/mL | IC80, titer in TZM.bl cells [3]: 0.122 µg/mL | IC50, titer in TZM.bl cells [4]: 0.256 µg/mL | IC80, titer in TZM.bl cells [4]: 6.69 µg/mL | IC50, titer in TZM.bl cells [5]: > 50 µg/mL | IC80, titer in TZM.bl cells [5]: > 50 µg/mL | IC50, titer in TZM.bl cells [6]: 0.553 µg/mL | IC80, titer in TZM.bl cells [6]: 7.05 µg/mL | IC50, titer in TZM.bl cells [7]: 0.029 µg/mL | IC80, titer in TZM.bl cells [7]: 0.114 µg/mL | IC50, titer in TZM.bl cells [8]: 0.04 µg/mL | IC80, titer in TZM.bl cells [8]: 0.173 µg/mL | IC50, titer in TZM.bl cells [9]: 0.101 µg/mL | IC80, titer in TZM.bl cells [9]: 0.25 µg/mL | IC50, titer in TZM.bl cells [10]: 22.6 µg/mL | IC80, titer in TZM.bl cells [10]: > 50 µg/mL | IC50, titer in TZM.bl cells [11]: 0.01 µg/mL | IC80, titer in TZM.bl cells [11]: 0.037 µg/mL | IC50, titer in TZM.bl cells [12]: > 50 µg/mL | IC80, titer in TZM.bl cells [12]: > 50 µg/mL | IC50, titer in TZM.bl cells [13]: 1.69 µg/mL | IC80, titer in TZM.bl cells [13]: 9 µg/mL | IC50, titer in TZM.bl cells [14]: > 50 µg/mL | IC80, titer in TZM.bl cells [14]: > 50 µg/mL | IC50, titer in TZM.bl cells [15]: 0.053 µg/mL | IC80, titer in TZM.bl cells [15]: 0.154 µg/mL | IC50, titer in TZM.bl cells [16]: 0.026 µg/mL | IC80, titer in TZM.bl cells [16]: 0.088 µg/mL | IC50, titer in TZM.bl cells [17]: 0.021 µg/mL | IC80, titer in TZM.bl cells [17]: 0.06 µg/mL | IC50, titer in TZM.bl cells [18]: 0.007 µg/mL | IC80, titer in TZM.bl cells [18]: 0.029 µg/mL | IC50, titer in TZM.bl cells [19]: 24.5 µg/mL | IC80, titer in TZM.bl cells [19]: > 50 µg/mL | IC50, titer in TZM.bl cells [20]: 1.75 µg/mL | IC80, titer in TZM.bl cells [20]: 6.33 µg/mL | IC50, titer in TZM.bl cells [21]: 0.025 µg/mL | IC80, titer in TZM.bl cells [21]: 0.068 µg/mL | IC50, titer in TZM.bl cells [22]: 0.02 µg/mL | IC80, titer in TZM.bl cells [22]: 0.055 µg/mL | IC50, titer in TZM.bl cells [23]: 0.07 µg/mL | IC80, titer in TZM.bl cells [23]: 0.206 µg/mL | IC50, titer in TZM.bl cells [24]: 0.088 µg/mL | IC80, titer in TZM.bl cells [24]: 0.251 µg/mL

PG16 (antibody)
IC50, titer in TZM.bl cells [1]: 0.653 µg/mL | IC80, titer in TZM.bl cells [1]: > 50 µg/mL | IC50, titer in TZM.bl cells [2]: 1.83 µg/mL | IC80, titer in TZM.bl cells [2]: 33 µg/mL | IC50, titer in TZM.bl cells [3]: 0.044 µg/mL | IC80, titer in TZM.bl cells [3]: 0.25 µg/mL | IC50, titer in TZM.bl cells [4]: 7.03 µg/mL | IC80, titer in TZM.bl cells [4]: > 50 µg/mL | IC50, titer in TZM.bl cells [5]: > 50 µg/mL | IC80, titer in TZM.bl cells [5]: > 50 µg/mL | IC50, titer in TZM.bl cells [6]: 0.858 µg/mL | IC80, titer in TZM.bl cells [6]: > 50 µg/mL | IC50, titer in TZM.bl cells [7]: 0.008 µg/mL | IC80, titer in TZM.bl cells [7]: 0.056 µg/mL | IC50, titer in TZM.bl cells [8]: 0.01 µg/mL | IC80, titer in TZM.bl cells [8]: 0.042 µg/mL | IC50, titer in TZM.bl cells [9]: 0.039 µg/mL | IC80, titer in TZM.bl cells [9]: 0.25 µg/mL | IC50, titer in TZM.bl cells [10]: 0.375 µg/mL | IC80, titer in TZM.bl cells [10]: 3.92 µg/mL | IC50, titer in TZM.bl cells [11]: 0.002 µg/mL | IC80, titer in TZM.bl cells [11]: 0.012 µg/mL | IC50, titer in TZM.bl cells [12]: > 50 µg/mL | IC80, titer in TZM.bl cells [12]: > 50 µg/mL | IC50, titer in TZM.bl cells [13]: 1.54 µg/mL | IC80, titer in TZM.bl cells [13]: 36.1 µg/mL | IC50, titer in TZM.bl cells [14]: > 50 µg/mL | IC80, titer in TZM.bl cells [14]: > 50 µg/mL | IC50, titer in TZM.bl cells [15]: 0.009 µg/mL | IC80, titer in TZM.bl cells [15]: 0.042 µg/mL | IC50, titer in TZM.bl cells [16]: 0.003 µg/mL | IC80, titer in TZM.bl cells [16]: 0.009 µg/mL | IC50, titer in TZM.bl cells [17]: 0.17 µg/mL | IC80, titer in TZM.bl cells [17]: > 0.25 µg/mL | IC50, titer in TZM.bl cells [18]: 0.001 µg/mL | IC80, titer in TZM.bl cells [18]: 0.003 µg/mL | IC50, titer in TZM.bl cells [19]: 6.83 µg/mL | IC80, titer in TZM.bl cells [19]: > 50 µg/mL | IC50, titer in TZM.bl cells [20]: > 50 µg/mL | IC80, titer in TZM.bl cells [20]: > 50 µg/mL | IC50, titer in TZM.bl cells [21]: 0.005 µg/mL | IC80, titer in TZM.bl cells [21]: 0.018 µg/mL | IC50, titer in TZM.bl cells [22]: 0.002 µg/mL | IC80, titer in TZM.bl cells [22]: 0.006 µg/mL | IC50, titer in TZM.bl cells [23]: 0.007 µg/mL | IC80, titer in TZM.bl cells [23]: 0.037 µg/mL | IC50, titer in TZM.bl cells [24]: 0.02 µg/mL | IC80, titer in TZM.bl cells [24]: 0.111 µg/mL
